According to the supplement of paper PMC9116672:
± gives the standard deviation of the averaged measurements or the uncertainty stated by the source.

Assays:
[1] = duplex formation enthalpy ΔH (Van't Hoff fit of HRM Tm); higher = less exothermic duplex formation; settings: temperature for dG: 50 °C, NaCl: 500 mM (unadjusted)
Method: (§1)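 Duplex of the listed DNA strand with its complement, in 1x NNE buffer (500 mM NaCl, pH 7.0) with 1x EvaGreen. ΔH and ΔS come from a Van't Hoff linear fit of 1/Tm against ln(CT/4) over 1-20 uM, using HRM Tm values.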

[2] = duplex formation free energy ΔG50 (Van't Hoff fit of HRM Tm); higher = less stable duplex; settings: temperature for dG: 50 °C, NaCl: 500 mM (unadjusted)
Method: as §1

[3] = duplex melting temperature (HRM, EvaGreen); higher = more stable duplex
Method: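 Listed DNA strand annealed 1:1 with its complementary strand (95 °C 5 min, 0.1 °C/s to 20 °C). Melted in 1x NNE buffer (500 mM NaCl, 10 mM Na2HPO4, 1 mM EDTA, pH 7.0) with 1x EvaGreen on a LightCycler96 (37 to 97 °C, 0.1 °C/s). Tm is the peak of -dF/dT at the stated total duplex concentration; 4 replicates are averaged. PS oligos are non-stereospecific (Rp/Sp mixtures).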

[4] = duplex formation entropy ΔS (Van't Hoff fit of HRM Tm); higher = smaller entropy loss on duplex formation; settings: temperature for dG: 50 °C, NaCl: 500 mM (unadjusted)
Method: as §1

[5] = backbone: PO-PO (both strands phosphodiester DNA)
[6] = backbone: PS-PO (listed strand fully phosphorothioate, complement phosphodiester)
[7] = backbone: PS-PS (both strands fully phosphorothioate)
[8] = duplex concentration 1 µM, backbone: PS-PS (both strands fully phosphorothioate)
[9] = duplex concentration 2.5 µM, backbone: PO-PO (both strands phosphodiester DNA)
[10] = duplex concentration 2.5 µM, backbone: PS-PO (listed strand fully phosphorothioate, complement phosphodiester)
[11] = duplex concentration 2.5 µM, backbone: PS-PS (both strands fully phosphorothioate)
[12] = duplex concentration 5 µM, backbone: PO-PO (both strands phosphodiester DNA)
[13] = duplex concentration 5 µM, backbone: PS-PO (listed strand fully phosphorothioate, complement phosphodiester)
[14] = duplex concentration 5 µM, backbone: PS-PS (both strands fully phosphorothioate)
[15] = duplex concentration 7.5 µM, backbone: PO-PO (both strands phosphodiester DNA)
[16] = duplex concentration 7.5 µM, backbone: PS-PO (listed strand fully phosphorothioate, complement phosphodiester)
[17] = duplex concentration 7.5 µM, backbone: PS-PS (both strands fully phosphorothioate)
[18] = duplex concentration 10 µM, backbone: PO-PO (both strands phosphodiester DNA)
[19] = duplex concentration 10 µM, backbone: PS-PO (listed strand fully phosphorothioate, complement phosphodiester)
[20] = duplex concentration 10 µM, backbone: PS-PS (both strands fully phosphorothioate)
[21] = duplex concentration 15 µM, backbone: PO-PO (both strands phosphodiester DNA)
[22] = duplex concentration 15 µM, backbone: PS-PO (listed strand fully phosphorothioate, complement phosphodiester)
[23] = duplex concentration 15 µM, backbone: PS-PS (both strands fully phosphorothioate)
[24] = duplex concentration 20 µM, backbone: PO-PO (both strands phosphodiester DNA)
[25] = duplex concentration 20 µM, backbone: PS-PO (listed strand fully phosphorothioate, complement phosphodiester)
[26] = duplex concentration 20 µM, backbone: PS-PS (both strands fully phosphorothioate)

| Sequence | duplex formation enthalpy ΔH [1, 5] | duplex formation enthalpy ΔH [1, 6] | duplex formation enthalpy ΔH [1, 7] | duplex formation free energy ΔG50 [2, 5] | duplex formation free energy ΔG50 [2, 6] | duplex formation free energy ΔG50 [2, 7] | duplex melting temperature [3, 8] | duplex melting temperature [3, 9] | duplex melting temperature [3, 10] | duplex melting temperature [3, 11] | duplex melting temperature [3, 12] | duplex melting temperature [3, 13] | duplex melting temperature [3, 14] | duplex melting temperature [3, 15] | duplex melting temperature [3, 16] | duplex melting temperature [3, 17] | duplex melting temperature [3, 18] | duplex melting temperature [3, 19] | duplex melting temperature [3, 20] | duplex melting temperature [3, 21] | duplex melting temperature [3, 22] | duplex melting temperature [3, 23] | duplex melting temperature [3, 24] | duplex melting temperature [3, 25] | duplex melting temperature [3, 26] | duplex formation entropy ΔS [4, 5] | duplex formation entropy ΔS [4, 6] | duplex formation entropy ΔS [4, 7] | duplex melting temperature ([3]; duplex concentration 1 µM, backbone: PO-PO (both strands phosphodiester DNA)) |
| --- | --- | --- | --- | --- | --- | --- | --- | --- | --- | --- | --- | --- | --- | --- | --- | --- | --- | --- | --- | --- | --- | --- | --- | --- | --- | --- | --- | --- | --- |
| CAAGCCTCGATTTTGT | -72.5 ± 2.1 kcal/mol | -71.3 ± 1.6 kcal/mol | -63.1 ± 2.1 kcal/mol | -12.29 ± 0.11 kcal/mol | -10.63 ± 0.052 kcal/mol | -9.148 ± 0.028 kcal/mol | 46.56 ± 0.31 °C | 64.39 ± 0.47 °C | 56.69 ± 0.17 °C | 50.11 ± 0.18 °C | 66.83 ± 0.17 °C | 58.85 ± 0.28 °C | 52.41 ± 0.077 °C | 68.04 ± 0.08 °C | 60.19 ± 0.34 °C | 53.632 ± 0.045 °C | 68.83 ± 0.17 °C | 60.95 ± 0.27 °C | 54.55 ± 0.083 °C | 70.12 ± 0.2 °C | 62.25 ± 0.24 °C | 55.802 ± 0.033 °C | 71.17 ± 0.15 °C | 63.14 ± 0.43 °C | 56.6 ± 0.35 °C | -186 ± 6 cal/mol/K | -188 ± 4.9 cal/mol/K | -167 ± 6.5 cal/mol/K | – |
| AGAGCGCCCTGCTGCC | -86.9 ± 3.2 kcal/mol | -74.4 ± 2.6 kcal/mol | -80.8 ± 1.7 kcal/mol | -15.8 ± 0.28 kcal/mol | -13.3 ± 0.17 kcal/mol | -12.59 ± 0.085 kcal/mol | 61.69 ± 0.3 °C | 76.76 ± 0.43 °C | 69.05 ± 0.38 °C | 64.26 ± 0.22 °C | 78.81 ± 0.32 °C | 71.34 ± 0.29 °C | 66.24 ± 0.22 °C | 79.83 ± 0.11 °C | 72.67 ± 0.34 °C | 67.29 ± 0.24 °C | 80.68 ± 0.17 °C | 73.6 ± 0.23 °C | 68.17 ± 0.076 °C | 81.9 ± 0.28 °C | 74.83 ± 0.1 °C | 69.33 ± 0.14 °C | 82.78 ± 0.25 °C | 75.7 ± 0.12 °C | 70.195 ± 0.058 °C | -220 ± 9 cal/mol/K | -189 ± 7.4 cal/mol/K | -211 ± 5 cal/mol/K | – |
| CGCGCGAGTATTTATAACCT | -138 ± 10 kcal/mol | -107 ± 4 kcal/mol | -86 ± 6.3 kcal/mol | -18.2 ± 0.69 kcal/mol | -13.7 ± 0.2 kcal/mol | -10.5 ± 0.12 kcal/mol | 52.47 ± 0.24 °C | 72.26 ± 0.47 °C | 64.1 ± 0.75 °C | 55.09 ± 0.4 °C | 73.44 ± 0.43 °C | 65.57 ± 0.61 °C | 56.95 ± 0.38 °C | 74.53 ± 0.18 °C | 66.38 ± 0.52 °C | 57.68 ± 0.13 °C | 75.09 ± 0.087 °C | 67.07 ± 0.32 °C | 58.33 ± 0.069 °C | 75.71 ± 0.17 °C | 67.9 ± 0.21 °C | – | – | 68.39 ± 0.14 °C | – | -372 ± 29 cal/mol/K | -290 ± 12 cal/mol/K | -234 ± 19 cal/mol/K | 71.21 ± 0.27 °C |
